What was measured:
[1] = biological target: T1, recombinant human Topoisomerase 2a lacking the unstructured C-terminal domain (1-1,217) (human, UniProt P11388 1-1217); assay: mass spectrometry of bands cut from the native PAGE; unshifted and shifted Top2a bands of the blue-native gel analysed by mass spectrometry; details: both partners purified
T1 construct: human Topoisomerase 2a residues 1-1,217; A legend on the cited structures calls Top2a a homodimer; also called Top2a ΔC; Top2aΔCTD; source: recombinant, purified
T1 sequence (P11388 1-1217): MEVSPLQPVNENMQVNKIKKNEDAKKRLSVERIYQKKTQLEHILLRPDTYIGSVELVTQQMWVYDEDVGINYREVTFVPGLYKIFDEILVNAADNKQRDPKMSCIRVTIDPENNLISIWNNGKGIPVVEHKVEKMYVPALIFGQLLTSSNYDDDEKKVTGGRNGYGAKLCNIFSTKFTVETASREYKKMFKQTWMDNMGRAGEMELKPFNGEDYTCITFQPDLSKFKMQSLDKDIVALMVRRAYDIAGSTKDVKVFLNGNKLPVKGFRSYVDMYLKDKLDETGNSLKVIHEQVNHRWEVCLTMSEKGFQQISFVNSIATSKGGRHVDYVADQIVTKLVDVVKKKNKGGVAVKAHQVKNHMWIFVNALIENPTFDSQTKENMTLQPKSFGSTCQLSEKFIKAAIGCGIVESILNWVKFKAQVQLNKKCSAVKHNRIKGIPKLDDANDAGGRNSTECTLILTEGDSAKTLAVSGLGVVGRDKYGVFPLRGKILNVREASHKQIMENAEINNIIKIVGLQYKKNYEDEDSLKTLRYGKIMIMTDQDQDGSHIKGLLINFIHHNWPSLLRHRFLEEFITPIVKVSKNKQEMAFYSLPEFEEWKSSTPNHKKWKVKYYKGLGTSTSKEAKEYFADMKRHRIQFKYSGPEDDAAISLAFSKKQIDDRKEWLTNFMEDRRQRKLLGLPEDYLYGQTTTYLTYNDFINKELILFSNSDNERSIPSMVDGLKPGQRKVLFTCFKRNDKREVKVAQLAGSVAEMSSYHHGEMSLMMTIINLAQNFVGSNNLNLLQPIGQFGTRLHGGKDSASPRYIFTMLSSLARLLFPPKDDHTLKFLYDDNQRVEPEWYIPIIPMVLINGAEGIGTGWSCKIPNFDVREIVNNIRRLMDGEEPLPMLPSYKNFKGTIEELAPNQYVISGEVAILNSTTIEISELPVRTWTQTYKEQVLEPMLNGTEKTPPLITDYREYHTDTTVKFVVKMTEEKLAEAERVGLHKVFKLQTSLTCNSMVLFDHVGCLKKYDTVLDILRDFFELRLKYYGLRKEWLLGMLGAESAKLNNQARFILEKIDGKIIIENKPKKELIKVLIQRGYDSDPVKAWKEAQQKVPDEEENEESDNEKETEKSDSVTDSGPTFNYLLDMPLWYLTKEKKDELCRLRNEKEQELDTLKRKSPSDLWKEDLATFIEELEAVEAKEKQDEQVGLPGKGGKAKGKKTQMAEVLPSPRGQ

[2] = biological target: RPA49/RPA34 heterodimer full length (Homo sapiens, UniProt Q9GZS1;O15446 1-419;1-510); assay: EMSA; EMSA: 100 fmol DNA, up to 50x protein, RT 30 min; buffer 1: 10 mM Tris pH 7.5, 50 mM NaCl, 1 mM MgCl2, 4% glycerol, 0.5 mM EDTA, 0.5 mM DTT; or buffer 2: 20 mM; details: protein: recombinant; tags: N-term 6xHis on RPA49; RPA34 untagged; copies: 1;1; label: 5'-Cy5 on strand 1; blunt
Chain of RPA49/RPA34 heterodimer full length (Q9GZS1 whole entry, chain 1 of 2): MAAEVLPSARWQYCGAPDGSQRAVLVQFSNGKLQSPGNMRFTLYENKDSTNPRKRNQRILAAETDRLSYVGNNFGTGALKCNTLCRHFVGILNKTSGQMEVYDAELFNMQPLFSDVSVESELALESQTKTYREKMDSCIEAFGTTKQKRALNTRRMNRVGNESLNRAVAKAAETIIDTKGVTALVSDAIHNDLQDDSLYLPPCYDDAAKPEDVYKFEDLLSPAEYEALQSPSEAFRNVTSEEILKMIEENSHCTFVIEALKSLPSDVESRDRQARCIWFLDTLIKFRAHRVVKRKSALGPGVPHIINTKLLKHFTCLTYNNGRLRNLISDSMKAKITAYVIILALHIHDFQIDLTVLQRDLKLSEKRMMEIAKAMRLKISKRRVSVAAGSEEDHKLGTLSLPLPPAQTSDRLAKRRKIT
Chain of RPA49/RPA34 heterodimer full length (O15446 whole entry, chain 2 of 2): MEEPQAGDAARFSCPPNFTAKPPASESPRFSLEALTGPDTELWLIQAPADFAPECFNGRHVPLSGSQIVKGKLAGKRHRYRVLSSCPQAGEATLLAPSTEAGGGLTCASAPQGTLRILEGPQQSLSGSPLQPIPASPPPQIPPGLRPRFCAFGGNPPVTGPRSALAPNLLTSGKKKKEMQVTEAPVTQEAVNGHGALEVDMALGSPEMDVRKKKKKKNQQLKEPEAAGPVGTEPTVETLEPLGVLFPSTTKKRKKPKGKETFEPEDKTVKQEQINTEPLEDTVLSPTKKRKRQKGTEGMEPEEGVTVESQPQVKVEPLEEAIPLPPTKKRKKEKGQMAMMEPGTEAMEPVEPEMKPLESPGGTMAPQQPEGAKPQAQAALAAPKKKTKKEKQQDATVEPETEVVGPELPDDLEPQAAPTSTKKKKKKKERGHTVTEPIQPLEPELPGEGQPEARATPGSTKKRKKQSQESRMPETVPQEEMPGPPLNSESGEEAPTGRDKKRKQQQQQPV

[3] = biological target: dock II minimal (Homo sapiens, UniProt O95602 1081-1146); assay: EMSA; up to 50x protein excess; no major DNA binding; EMSA: 100 fmol DNA, up to 50x protein, RT 30 min; buffer 1: 10 mM Tris pH 7.5, 50 mM NaCl, 1 mM MgCl2, 4% glycerol, 0.5 mM EDTA, 0.5 mM DTT; or buffer 2: 20 mM; details: protein: recombinant; tags: C-term His-MBP; label: 5'-Cy5 on strand 1; blunt

B1: human dock II domain, full-length fragment (RPA1 1060-1155) with C-terminal His-MBP-tag (domain or fragment, UniProt O95602 1060-1155, looked up)
chain: ADPKKALHHFRAIKKWQSKHPNTLLRRGAFLSYSQKIQEAVKALKLESENRNGRSPGTQEMLRMWYELDEESRRKYQKKAAACPDPSLSVWRPDIY
notes: human RPA1 residues 1060-1155, the dock II domain (HMG box-like foot insertion); The results call it MBP-dock II; the methods say that the His-MBP tag is C-terminal; also called full-length MBP-dock II; dock II-MBP fusion; source: E. coli BL21 (DE3) RIL, purified (Ni-NTA, Superdex 75); not shown: His, C-terminal, kept; MBP, C-terminal, kept
B1: binds [1].

B2: EMSA-DNA 40 bp (dsDNA)
DNA 1: CTGGAACAACACTCAACCCTATCTCGGTCTATTCTTTTGA
DNA 2: TCAAAAGAATAGACCGAGATAGGGTTGAGTGTTGTTCCAG
B2: binds [2]; no binding [3].

Source: PMC9438803 (Life Science Alliance, 2021)
